{"source": "patent US20020168358A1", "about": "“Treatment of T-cell mediated diseases” (priority 2001, published 2002)", "molecules": {"B1": {"name": "SLC: secondary lymphoid organ chemokine, ligand of the CCR7 receptor (protein, UniProt O00585 24-134, looked up)", "C-C motif chemokine 21": "SDGGAQDCCLKYSQRKIPAKVVRSYRKQEPSLGCSIPAILFLPRKRSQAELCADPKELWVQQLMQHLDKTPSPQKPAQGCRKDRGASKTGKKGKGSKGCKRTERSQTPKGP"}, "B2": {"name": "Tarc: chemokine tested for comparison in T cell chemotaxis (protein, UniProt Q92583 24-94, looked up)", "C-C motif chemokine 17": "ARGTNVGRECCLEYFKGAIPLRKLKTWYQTSEDCSRDAIVFVTVQGRAICSDPNNKRVKNAVKYLQSLERS"}, "B3": {"name": "MIP-1α: chemokine tested for comparison in T cell chemotaxis (protein, UniProt P10147 24-92, looked up)", "C-C motif chemokine 3": "SLAADTPTACCFSYTSRQIPQNFIADYFETSSQCSKPGVIFLTKRSRQVCADPSEEWVQKYVSDLELSA"}, "B4": {"name": "RANTES: chemokine tested for comparison in T cell chemotaxis (protein, UniProt P13501 24-91, looked up)", "C-C motif chemokine 5": "SPYSSDTTPCCFAYIARPLPRAHIKEYFYTSGKCSNPAVVFVTRKNRQVCANPEKKWVREYINSLEMS"}, "B5": {"name": "MIP-3β: chemokine, macrophage inflammatory protein-3b, ligand of the CCR7 receptor (protein, UniProt Q99731 22-98, looked up)", "C-C motif chemokine 19": "GTNDAEDCCLSVTQKPIPGYIVRNFHYLLIKDGCRVPAVVFTTLRGRQLCAPPDQPWVERIIQRLQRTSAKMKRRSS"}, "B6": {"name": "MIP-1β: chemokine tested for comparison in T cell chemotaxis (protein, UniProt P13236 24-92, looked up)", "C-C motif chemokine 4": "APMGSDPPTACCFSYTARKLPRNFVVDYYETSSLCSQPAVVFQTKRSKQVCADPSESWVQEYVYDLELN"}}, "key": {"[1]": {"tested_on": "PHA-activated human T cells", "assay": "In vitro chemotaxis of T cells (48-well Boyden chamber)", "format": "cell-based", "settings": "for effect on T cell chemotaxis compared with other chemokines: Hut 78 and primary T cells; for chemoattractant activity for PHA-activated human T cells: FIG. 3", "experimental": "Lymphocyte and PHA blast chemotaxis to appropriate chemokine was measured using a 48-well Boyden chamber (Neuro Probe Inc., Cabin John, Md.). Agonists were diluted in RPMI media (BioWhittaker, Walkersville, Md.) containing 0.1% bovine serum albumin (Invitrogen, Carlsbad, Calif.) and added to the bottom wells of the chemotaxis chamber. Peripheral mononuclear blood cells were resuspended in RPMI/BSA media at a concentration of 2.5×10^6 cells per ml. Fifty μl of this cell suspension was then added to the upper chamber. A 5 μm PVP-free polycarbonate filter, coated on the bottom with 10 microgram/ml of human type IV collagen (Neuro Probe Inc.), was used to separate the wells of the chamber Chambers were incubated for 60 minutes in a 5% CO2-humidified atmosphere at 37° C. After the incubation period, the filters were removed, the top side was scraped to remove non-migrating cells, and the filters were stained with Diff-Quik stain (Dade Behring AG, Dudingen, Switzerland). The number of PMBC cells migrating was counted by light microscopy. The mean of three high powered fields was then determined. The number of migrating PMBC cells was calculated by subtracting […]."}, "CCR7": {"target": "T1, CCR7 (Homo sapiens, UniProt P32248)", "T1 construct": "The cells were then disrupted with a Polytron homogenizer and centrifuged at 30,000× g for 10 min; endogenous in cells; host or cells: HUT-78 cells (membrane pellet)", "T1 sequence (P32248 25-378)": "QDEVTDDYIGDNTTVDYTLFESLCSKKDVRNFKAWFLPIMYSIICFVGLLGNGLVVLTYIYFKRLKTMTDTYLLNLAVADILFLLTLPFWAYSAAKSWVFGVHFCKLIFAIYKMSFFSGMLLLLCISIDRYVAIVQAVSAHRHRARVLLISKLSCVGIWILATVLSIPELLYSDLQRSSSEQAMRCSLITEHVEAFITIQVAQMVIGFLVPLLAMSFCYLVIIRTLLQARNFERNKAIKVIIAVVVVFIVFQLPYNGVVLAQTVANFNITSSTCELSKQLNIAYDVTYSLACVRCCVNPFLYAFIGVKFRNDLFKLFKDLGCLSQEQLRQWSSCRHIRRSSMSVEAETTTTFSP", "assay": "Binding assay: 125I-MIP-3β binding to HUT-78 cell membranes (scintillation proximity)", "settings": "binding assay of Example 1, HUT-78 membranes, read-out: IC50, inhibition of binding of MIP-3β to CCR7", "experimental": "HUT-78 cells were cultured in RPMI media with 10% FBS, pen-strep (100 u/ml), L-glutamine (2 mM), HEPES (10 mM) and non-essential amino acids (0.1 mM). The cells were collected by centrifugation at 170× g for 5 min and resuspended to 50×10^ 6 cells/ml in Dulbeccoco's Ca^2+ and Mg^2+ free media containing 8 mg/l aprotinin at 4° C. The cells were then disrupted with a Polytron homogenizer and centrifuged at 30,000× g for 10 min. The pellet was washed 6 times and stored at −80° C.\nThe binding assay was run in a buffer containing HEPES (50 mM), CaCl2 (1 mM), MgCl2 (5 mM), NaCl (150 mM) and BSA (0.5 mg/ml), pH 7.2. The pellet was resuspended to 8×10^6 cell equivalents/ml and 50 μl was added to microtiter plate wells containing 130 μl of buffer with various concentrations of compounds, and 0.5 mg PEI-treated wheatgerm agglutinin-coated scintillation proximity beads (Amersham). The binding was initiated by the addition of 20 μl of 600 pM ^125I-MIP-3β (New England Nuclear). The microtiter plate was mixed and then the beads were allowed to settle overnight before counting in a Microbeta plus liquid scintillation counter (Wallac)."}, "Hut-78 cells": {"tested_on": "Hut-78 cells", "assay": "In vitro chemotaxis of Hut-78 cells", "format": "cell-based", "settings": "FIG. 2"}}}
{"molecule": "IP-10: chemokine tested for comparison in T cell chemotaxis", "values": [{"measurement": "effect on T cell chemotaxis compared with other chemokines", "setting": "[1]", "value": "minimal effects"}]}
{"molecule": "Cc1cc(C)c2c(=O)n(CC(O)CN(C)CC3OCCCO3)sc2c1", "note": "(stereo not drawn) [Example 4]", "values": [{"measurement": "IC50", "setting": "CCR7", "value": 2200, "unit": "nM"}]}
{"molecule": "MCP-1: chemokine tested for comparison in T cell chemotaxis", "values": [{"measurement": "effect on T cell chemotaxis compared with other chemokines", "setting": "[1]", "value": "minimal effects"}]}
{"molecule": "MCP-3: chemokine tested for comparison in T cell chemotaxis", "values": [{"measurement": "effect on T cell chemotaxis compared with other chemokines", "setting": "[1]", "value": "minimal effects"}]}
{"molecule": "O=S1(=O)COc2cc(NCCCc3cnco3)ccc2N1", "note": "[Example 3]", "values": [{"measurement": "IC50", "setting": "CCR7", "value": 1500, "unit": "nM"}]}
{"molecule": "B1", "values": [{"measurement": "chemoattractant activity for PHA-activated human T cells", "setting": "[1]", "value": "potent chemoattractants"}, {"measurement": "effect on T cell chemotaxis compared with other chemokines", "setting": "[1]", "value": "most potent T cell chemotactic agents"}, {"measurement": "chemoattractant activity for Hut-78 cells", "setting": "Hut-78 cells", "value": "potent chemoattractants"}]}
{"molecule": "B2", "values": [{"measurement": "effect on T cell chemotaxis compared with other chemokines", "setting": "[1]", "value": "minimal effects"}]}
{"molecule": "B3", "values": [{"measurement": "effect on T cell chemotaxis compared with other chemokines", "setting": "[1]", "value": "minimal effects"}]}
{"molecule": "B4", "values": [{"measurement": "effect on T cell chemotaxis compared with other chemokines", "setting": "[1]", "value": "minimal effects"}]}
{"molecule": "B5", "values": [{"measurement": "chemoattractant activity for PHA-activated human T cells", "setting": "[1]", "value": "potent chemoattractants"}, {"measurement": "effect on T cell chemotaxis compared with other chemokines", "setting": "[1]", "value": "most potent T cell chemotactic agents"}, {"measurement": "chemoattractant activity for Hut-78 cells", "setting": "Hut-78 cells", "value": "potent chemoattractants"}]}
{"molecule": "B6", "values": [{"measurement": "effect on T cell chemotaxis compared with other chemokines", "setting": "[1]", "value": "minimal effects"}]}
